Substitutions are numbered along the chain they refer to. One block for each binder: values may come before it.
Tests used:
[1] = target: T1, human TGFβ1 (human, UniProt P01137 279-390); test: Biacore off-rate vs wt GC1008
T1 construct: also called TGFβ1 homodimer
From the text: (§1) Plasmids encoding either the GC1008 heavy chain or light chain were used as a template in PCR-based mutagenesis reactions. Mutations to the encoding DNA were made to create 155 single amino acid substitutions of the encoded heavy chain amino acid sequence and one single amino acid substitution of the encoded light chain amino acid sequence. A QuikChange® Lightning Site-Directed Mutagenesis kit (Agilent Technologies, Santa Clara Calif.) was used according to the manufacturer's instructions to create DNA mutations using a set of forward and reverse primers, either designed for a specific amino acid or for all 20 amino acids with a degenerate codon (NNK). After sequencing confirmation, identified mutant DNA was paired with a wild-type light or heavy chain DNA for transfection into an Expi293F™ host cell suspension (Life Techonologies Corp., Grand Island, N.Y.). At 4 days post-transfection, conditioned media (1 mL) was harvested and purified using a 1 mL Protein A PhyTip® column (PhyNexus, Inc., San Jose, Calif.) and a PureSpeed™ 12-channel pipette (Rainin Instrument LLC, Oakland, Calif.). Purified variant antibody samples were analyzed in duplicate on a Biacore® 3000 (GE Healthcare) at 50 nM concentrations, using the 100 RU level TGFβ1, 2, and 3 immobilized surfaces. The off-rate (kd) of the variants was divided by the kd of the wild-type control to obtain the fold change in the kd. […] A heat map was generated to visualize the results. Variants that completely lost affinity for TGFβ were shown in red without numbers.

[2] = target: T2, human TGFβ2 (human, UniProt P61812 303-414); test: Biacore off-rate vs wt GC1008
T2 construct: also called TGFβ2 homodimer
T2 sequence: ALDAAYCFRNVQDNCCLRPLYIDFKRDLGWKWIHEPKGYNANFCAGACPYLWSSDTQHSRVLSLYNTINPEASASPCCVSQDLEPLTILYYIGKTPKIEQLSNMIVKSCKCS
From the text: as §1

[3] = target: T3, human TGFβ3 (human, UniProt P10600 301-412); test: Biacore off-rate vs wt GC1008
T3 sequence: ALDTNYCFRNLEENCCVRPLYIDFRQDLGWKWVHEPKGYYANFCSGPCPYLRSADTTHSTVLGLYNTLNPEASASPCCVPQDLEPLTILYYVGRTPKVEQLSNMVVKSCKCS
From the text: as §1

[4] = target: T1, human TGFβ1; test: Biacore off-rate vs wt GC1008, 50 nM
Summary of the method: (§2)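 Surface plasmon resonance on a Biacore 3000 measured how fast purified antibody variants dissociated from TGFβ isoforms immobilized at about 100 RU. Variants carried single heavy- or light-chain substitutions and were produced by transient Expi293F transfection with Protein A cleanup. Samples at 50 nM were tested in duplicate, and each variant kd was divided by the wild-type control kd to give fold change.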

[5] = target: T2, human TGFβ2; test: Biacore off-rate vs wt GC1008, 50 nM
Summary of the method: as §2

[6] = target: T3, human TGFβ3; test: Biacore off-rate vs wt GC1008, 50 nM
Summary of the method: as §2

[7] = target: T1, human TGFβ1; test: Biacore, 3.33-90 nM, 1:1 global fit, vs wt GC1008
Protocol: (§3) In FIG. 6C, seventeen mutants were selected and scaled up to produce sufficient amount of purified protein for KD (equilibrium constant=kd/ka) analysis by Biacore. Multiple concentrations (90, 30, 10 and 3.33 nM) were used in duplicate on the 150 RU level TGFβ1, 2, and 3 immobilized surfaces. KD was calculated using global curve fitting analysis for a 1-to-1 Langmuir binding model. The experimental data from all four concentrations were used for calculation except for I54N and I54R mutants, where only the top 2 concentrations were used. The fold changes in KD were compared to the fold changes in kd (off rate) presented in FIG. 6B, and a heat map was generated for visualization. Similar fold changes were observed from the two data sets, confirming the validity of using kd as a parameter for screening of 155 single mutants as shown in FIG. 6B.

[8] = target: T2, human TGFβ2; test: Biacore, 3.33-90 nM, 1:1 global fit, vs wt GC1008
Protocol: as §3

[9] = target: T3, human TGFβ3; test: Biacore, 3.33-90 nM, 1:1 global fit, vs wt GC1008
Protocol: as §3

[10] = target: T1, human TGFβ1; test: Biacore, immobilised TGFβ
[11] = target: T2, human TGFβ2; test: Biacore, immobilised TGFβ
[12] = target: T3, human TGFβ3; test: Biacore, immobilised TGFβ

T1 sequence (P01137 279-390 limits assumed): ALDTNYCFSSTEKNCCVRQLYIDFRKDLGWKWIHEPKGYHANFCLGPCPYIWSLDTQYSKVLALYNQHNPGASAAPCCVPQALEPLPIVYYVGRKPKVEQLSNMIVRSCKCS

kd mutant/kd wt [1]: 0.8
kd mutant/kd wt [2]: 0.3
kd mutant/kd wt [3]: 0.3
kd var/kd wt [4]: 0.8
kd var/kd wt [5]: 0.3
kd var/kd wt [6]: 0.3
KD mutant/KD wt [7]: 0.9
KD mutant/KD wt [8]: 0.5
KD mutant/KD wt [9]: 0.6
B1: E74W (antibody, V domains shown)
VH: QVQLVQSGAEVKKPGSSVKVSCKASGYTFSSNVISWVRQAPGQGLEWMGGVIPIVDIANYAQRFKGRVTITADWSTSTTYMELSSLRSEDTAVYYCASTLGLVLDAMDYWGQGTLVTVSS
VL: ETVLTQSPGTLSLSPGERATLSCRASQSLGSSYLAWYQQKPGQAPRLLIYGASSRAPGIPDRFSGSGSGTDFTLTISRLEPEDFAVYYCQQYADSPITFGQGTRLEIK
notes: GC1008 IgG4 variant

kd mutant/kd wt [1]: 1.2
kd mutant/kd wt [2]: 1.4
kd mutant/kd wt [3]: 1.1
kd var/kd wt [4]: 1.2
kd var/kd wt [5]: 1.4
kd var/kd wt [6]: 1.1
KD mutant/KD wt [7]: 1.5
KD mutant/KD wt [8]: 1.6
KD mutant/KD wt [9]: 0.8
B2: S30E (antibody, V domains shown)
VH: B1 VH with S30E, W74E
VL: B1 VL
notes: GC1008 IgG4 variant

kd mutant/kd wt [1]: 2.1
kd mutant/kd wt [2]: 1.3
kd mutant/kd wt [3]: 1.7
kd var/kd wt [4]: 2.1
kd var/kd wt [5]: 1.3
kd var/kd wt [6]: 1.7
KD mutant/KD wt [7]: 2.1
KD mutant/KD wt [8]: 2.1
KD mutant/KD wt [9]: 3.2
B3: I54T (antibody, V domains shown)
VH: B1 VH with I54T, W74E
VL: B1 VL
notes: GC1008 IgG4 variant

kd mutant/kd wt [1]: 3
kd mutant/kd wt [2]: 1.4
kd mutant/kd wt [3]: 1.6
kd var/kd wt [4]: 3
kd var/kd wt [5]: 1.4
kd var/kd wt [6]: 1.6
KD mutant/KD wt [7]: 4.1
KD mutant/KD wt [8]: 2.4
KD mutant/KD wt [9]: 2.6
B4: I52L (antibody, V domains shown)
VH: B1 VH with I52L, W74E
VL: B1 VL
notes: GC1008 IgG4 variant

binding result [10]: no binding (tested: 50 nM)
binding result [11]: no binding (tested: 50 nM)
binding result [12]: no binding (tested: 50 nM)
B5: I52D (antibody, V domains shown)
VH: B1 VH with I52D, W74E
VL: B1 VL
notes: GC1008 IgG4 variant

kd mutant/kd wt [1]: 1.3
kd mutant/kd wt [2]: 0.7
kd mutant/kd wt [3]: 1.2
kd var/kd wt [4]: 1.3
kd var/kd wt [5]: 0.7
kd var/kd wt [6]: 1.2
KD mutant/KD wt [7]: 1.3
KD mutant/KD wt [8]: 0.6
KD mutant/KD wt [9]: 1.2
B6: I54F (antibody, V domains shown)
VH: B1 VH with I54F, W74E
VL: B1 VL
notes: GC1008 IgG4 variant

binding result [10]: no binding (tested: 50 nM)
binding result [11]: no binding (tested: 50 nM)
binding result [12]: no binding (tested: 50 nM)
B7: I52C (antibody, V domains shown)
VH: B1 VH with I52C, W74E
VL: B1 VL
notes: GC1008 IgG4 variant

kd mutant/kd wt [1]: 2
kd mutant/kd wt [2]: 1.2
kd mutant/kd wt [3]: 1.7
kd var/kd wt [4]: 2
kd var/kd wt [5]: 1.2
kd var/kd wt [6]: 1.7
KD mutant/KD wt [7]: 1.7
KD mutant/KD wt [8]: 1.4
KD mutant/KD wt [9]: 3.1
B8: I54W (antibody, V domains shown)
VH: B1 VH with I54W, W74E
VL: B1 VL
notes: GC1008 IgG4 variant

binding result [10]: no binding (tested: 50 nM)
binding result [11]: no binding (tested: 50 nM)
binding result [12]: no binding (tested: 50 nM)
B9: I52A (antibody, V domains shown)
VH: B1 VH with I52A, W74E
VL: B1 VL
notes: GC1008 IgG4 variant

kd mutant/kd wt [1]: 0.7
kd mutant/kd wt [2]: 0.4
kd mutant/kd wt [3]: 0.3
kd var/kd wt [4]: 0.7
kd var/kd wt [5]: 0.4
kd var/kd wt [6]: 0.3
KD mutant/KD wt [7]: 0.7
KD mutant/KD wt [8]: 0.4
KD mutant/KD wt [9]: 0.3
B10: S30W (antibody, V domains shown)
VH: B1 VH with S30W, W74E
VL: B1 VL
notes: GC1008 IgG4 variant

kd mutant/kd wt [1]: 1.5
kd mutant/kd wt [2]: 1.4
kd mutant/kd wt [3]: 1.4
kd var/kd wt [4]: 1.5
kd var/kd wt [5]: 1.4
kd var/kd wt [6]: 1.4
KD mutant/KD wt [7]: 1.2
KD mutant/KD wt [8]: 1.3
KD mutant/KD wt [9]: 1.1
B11: Y27H (antibody, V domains shown)
VH: B1 VH with Y27H, W74E
VL: B1 VL
notes: GC1008 IgG4 variant

kd mutant/kd wt [1]: 1.2
kd mutant/kd wt [2]: 0.9
kd mutant/kd wt [3]: 1.2
kd var/kd wt [4]: 1.2
kd var/kd wt [5]: 0.9
kd var/kd wt [6]: 1.2
KD mutant/KD wt [7]: 1
KD mutant/KD wt [8]: 0.6
KD mutant/KD wt [9]: 0.8
B12: V55F (antibody, V domains shown)
VH: B1 VH with V55F, W74E
VL: B1 VL
notes: GC1008 IgG4 variant

kd mutant/kd wt [1]: 0.6
kd mutant/kd wt [2]: 0.8
kd mutant/kd wt [3]: 0.7
kd var/kd wt [4]: 0.6
kd var/kd wt [5]: 0.8
kd var/kd wt [6]: 0.7
KD mutant/KD wt [7]: 1
KD mutant/KD wt [8]: 0.8
KD mutant/KD wt [9]: 1
B13: N32E (antibody, V domains shown)
VH: B1 VH with N32E, W74E
VL: B1 VL
notes: GC1008 IgG4 variant

kd mutant/kd wt [1]: 2.7
kd mutant/kd wt [2]: 1.4
kd mutant/kd wt [3]: 1.8
kd var/kd wt [4]: 2.7
kd var/kd wt [5]: 1.4
kd var/kd wt [6]: 1.8
KD mutant/KD wt [7]: 4
KD mutant/KD wt [8]: 2.6
KD mutant/KD wt [9]: 3.7
B14: N32K (antibody, V domains shown)
VH: B1 VH with N32K, W74E
VL: B1 VL
notes: GC1008 IgG4 variant

kd mutant/kd wt [1]: 1.7
kd mutant/kd wt [2]: 1.4
kd mutant/kd wt [3]: 1.6
kd var/kd wt [4]: 1.7
kd var/kd wt [5]: 1.4
kd var/kd wt [6]: 1.6
KD mutant/KD wt [7]: 1.3
KD mutant/KD wt [8]: 1.3
KD mutant/KD wt [9]: 1.3
B15: S31W (antibody, V domains shown)
VH: B1 VH with S31W, W74E
VL: B1 VL
notes: GC1008 IgG4 variant
